For assay [1], the target named is T1, Ang-2 (R&D systems; 623-AN-025/CF) (human, UniProt O15123 19-496).
T1 sequence: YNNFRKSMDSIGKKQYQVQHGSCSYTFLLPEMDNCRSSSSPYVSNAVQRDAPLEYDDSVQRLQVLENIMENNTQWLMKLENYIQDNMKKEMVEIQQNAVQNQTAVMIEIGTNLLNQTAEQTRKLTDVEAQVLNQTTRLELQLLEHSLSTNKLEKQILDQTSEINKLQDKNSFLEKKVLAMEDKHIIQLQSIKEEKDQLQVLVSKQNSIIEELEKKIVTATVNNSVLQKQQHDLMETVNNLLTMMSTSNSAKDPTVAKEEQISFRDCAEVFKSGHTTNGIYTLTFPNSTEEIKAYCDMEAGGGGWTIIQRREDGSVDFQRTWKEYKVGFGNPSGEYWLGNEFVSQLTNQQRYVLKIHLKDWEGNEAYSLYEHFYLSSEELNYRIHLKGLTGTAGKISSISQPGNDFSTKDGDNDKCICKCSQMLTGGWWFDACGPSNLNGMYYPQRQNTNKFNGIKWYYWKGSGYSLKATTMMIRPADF
Briefly: cell-based or functional assay.

Assay [2] has as its target T2, mutant Ang-2 protein, Y460 substituted with alanine (FLAG-tagged at N-terminal) (human, UniProt O15123 281-496, limits assumed).
T2 chain: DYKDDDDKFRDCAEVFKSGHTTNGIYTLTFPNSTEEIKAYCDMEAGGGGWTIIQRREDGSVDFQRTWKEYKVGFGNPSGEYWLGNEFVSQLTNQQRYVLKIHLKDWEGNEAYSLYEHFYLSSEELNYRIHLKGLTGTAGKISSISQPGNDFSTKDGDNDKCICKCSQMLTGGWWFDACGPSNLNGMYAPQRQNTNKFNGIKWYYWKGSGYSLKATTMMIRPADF
Briefly: ELISA, antibody coated, 250 ng FLAG-tagged mutant Ang-2, anti-FLAG-HRP, OD450 relative to native Ang-2. The method, then:
(§1) Each well of a 96-well MaxiSorp™ flat-bottom plate (Nunc) was coated with 50 ul (microliter) of 1000 nM antibodies (Example 2). Then, the plate was washed five times with a 0.05% (v/v) Tween-20 containing PBS (PBST) and blocked with a 1% (v/v) BSA containing PBS at a room temperature for 2 hours. 250 ng of each mutant Ang-2 protein obtained by substituting S417, Q418, P419, N421, 1434, D448, A449, P452, Y460, N467, K468, or F469 residue of Ang-2 protein tagged with a FLAG sequence ([…], Sigma) at its N-terminal with alanine was added to each well of the plate, which was then allowed to react at a room temperature for 2 hours.
(§2) The plate was washed five times with a 0.05% (v/v) Tween-20 containing PBS, reacted with an anti-FLAG antibody (SIGMA) conjugated with HRP which was diluted in a 1% (v/v) BSA containing PBS at a ratio of 1:5,000 (v/v) at a room temperature for 1 hour, and washed five times with a 0.1% (v/v) Tween-20 containing PBS.
(§3) Finally, 50 ul of TMB substrates (Cell signaling) was added to each well of the plate to induce color development reaction at a room temperature for 3 min. and the reaction was ceased by the addition of 50 ul of Stop solution (Cell signaling) and then, OD450 values were measured on a plate reader (Molecular Devices). By comparing binding affinities with mutated Ang-2 to those of unmutated Ang-2, each epitope of Ang-2 antibodies was identified. The thus obtained measurement results of the binding affinities (%) of mutant Ang-2 against the binding affinity of the native Ang-2 are shown in the following Table 9.
(In general: An ELISA detects its analyte on a solid surface through an enzyme-linked reagent.)

For assay [3], the target named is T3, mutant Ang-2 protein, S417 substituted with alanine (FLAG-tagged at N-terminal) (human, UniProt O15123 281-496, limits assumed).
T3 chain: T2 chain with S145A, A188Y
Described as above. As to the method: as §1, §2, §3

Assay [4] addresses T4, mutant Ang-2 protein, P452 substituted with alanine (FLAG-tagged at N-terminal) (human, UniProt O15123 281-496, limits assumed).
T4 chain: T2 chain with P180A, A188Y
Described as above. The method, then: as §1, §2, §3

Assay [5] concerns the target T5, mutant Ang-2 protein, N467 substituted with alanine (FLAG-tagged at N-terminal) (human, UniProt O15123 281-496, limits assumed).
T5 chain: T2 chain with A188Y, N195A
Described as above. As to the method: as §1, §2, §3

The target of assay [6] is T6, mutant Ang-2 protein, D448 substituted with alanine (FLAG-tagged at N-terminal) (human, UniProt O15123 281-496, limits assumed).
T6 chain: T2 chain with D176A, A188Y
The description is as above. As to the method:
as §1, §2, §3

Changes are numbered by the printed parent chain.

B1: SAIT-Ang-2-AB-m8B3 (antibody, V domains shown)
VH: DVQLQESGPGLVKPSQSLSLSCTVTGYSIASDYAWNWIRQFPGNKVEWMGYINYRGNTDYNPSLKSRSSINRDTSKNQFFLQLNSVTTGDTATYYCARGNFEGAMDYWGQGTSVTVSS
VL: TIVMTQTPKFLLVSAGDRITITCKASQSVSNDVAWYQQKPGQSPKLLIYYASNRYPGVPDRFTGSGYGTDFTFTISTVQAEDLAVYFCQQDYTSPWTFGGGTELEIK
notes: also called KCLRF-BP-00293
With B1, in assay [1], the “Ang-2-depedent Cell Adhesion Degree (%)” value is 23.6%. Moreover, the “% at RBD binding (mutant Ang-2 against native Ang-2)” value in assay [2] is 100%; in assay [3], 95.4%; in assay [4] it was 102%; in assay [5] it was 95.1%; in assay [6], 96.1%.

B2: SAIT-Ang-2-AB-m2E7 (antibody, V domains shown)
VH: DLQLQESGPGLVKPSQSLSLTCTVTGYSITSDYAWNWIRQFPGNKLEWMGYISYSGSTSYNPSLKSRISITRDTSKNQFFLQLNSLTTEDTATYYCARGDYGNYVGPMDYWGQGTSVTVSS
VL: B1 VL with T1S, I19V, Q37R, P56T, T93S, W96L, G100A, G101R, E103K, I106L
notes: also called KCLRF-BP-00294
As for B2, the “Ang-2-depedent Cell Adhesion Degree (%)” value in assay [1] was determined as 28.1%. Also, the “% at RBD binding (mutant Ang-2 against native Ang-2)” value in assay [2] turned out to be 98.7%; in assay [3], 98.3%; in assay [4], 90.1%; in assay [5] it was 96%; in assay [6], 96.9%.
